According to patent US7927864B2, “Methods, kits, and compositions for detecting enzyme activity” (Wake Forest University Health Sciences, priority 2006, dated 2011):

Legend:
ADAMTS13 [1] = target: T1, ADAMTS13 (Homo sapiens, UniProt Q76LX8); assay: FRET measurement of ADAMTS13 cleavage of fluorescein-labeled recombinant VWF73 peptide in plasma; assay type: biochemical; details: incubation with pooled normal plasma (PNP) as source of ADAMTS13; peptide 4.5 μM working solution, plasma diluted 1 in 8, pH 6.0
T1 construct: Pooled Normal Plasma (PNP) was used as a source of ADAMTS13; from tissue; host or cells: pooled normal plasma (PNP); the substrate peptide was made in M15 E. coli
T1 sequence (Q76LX8 75-1427): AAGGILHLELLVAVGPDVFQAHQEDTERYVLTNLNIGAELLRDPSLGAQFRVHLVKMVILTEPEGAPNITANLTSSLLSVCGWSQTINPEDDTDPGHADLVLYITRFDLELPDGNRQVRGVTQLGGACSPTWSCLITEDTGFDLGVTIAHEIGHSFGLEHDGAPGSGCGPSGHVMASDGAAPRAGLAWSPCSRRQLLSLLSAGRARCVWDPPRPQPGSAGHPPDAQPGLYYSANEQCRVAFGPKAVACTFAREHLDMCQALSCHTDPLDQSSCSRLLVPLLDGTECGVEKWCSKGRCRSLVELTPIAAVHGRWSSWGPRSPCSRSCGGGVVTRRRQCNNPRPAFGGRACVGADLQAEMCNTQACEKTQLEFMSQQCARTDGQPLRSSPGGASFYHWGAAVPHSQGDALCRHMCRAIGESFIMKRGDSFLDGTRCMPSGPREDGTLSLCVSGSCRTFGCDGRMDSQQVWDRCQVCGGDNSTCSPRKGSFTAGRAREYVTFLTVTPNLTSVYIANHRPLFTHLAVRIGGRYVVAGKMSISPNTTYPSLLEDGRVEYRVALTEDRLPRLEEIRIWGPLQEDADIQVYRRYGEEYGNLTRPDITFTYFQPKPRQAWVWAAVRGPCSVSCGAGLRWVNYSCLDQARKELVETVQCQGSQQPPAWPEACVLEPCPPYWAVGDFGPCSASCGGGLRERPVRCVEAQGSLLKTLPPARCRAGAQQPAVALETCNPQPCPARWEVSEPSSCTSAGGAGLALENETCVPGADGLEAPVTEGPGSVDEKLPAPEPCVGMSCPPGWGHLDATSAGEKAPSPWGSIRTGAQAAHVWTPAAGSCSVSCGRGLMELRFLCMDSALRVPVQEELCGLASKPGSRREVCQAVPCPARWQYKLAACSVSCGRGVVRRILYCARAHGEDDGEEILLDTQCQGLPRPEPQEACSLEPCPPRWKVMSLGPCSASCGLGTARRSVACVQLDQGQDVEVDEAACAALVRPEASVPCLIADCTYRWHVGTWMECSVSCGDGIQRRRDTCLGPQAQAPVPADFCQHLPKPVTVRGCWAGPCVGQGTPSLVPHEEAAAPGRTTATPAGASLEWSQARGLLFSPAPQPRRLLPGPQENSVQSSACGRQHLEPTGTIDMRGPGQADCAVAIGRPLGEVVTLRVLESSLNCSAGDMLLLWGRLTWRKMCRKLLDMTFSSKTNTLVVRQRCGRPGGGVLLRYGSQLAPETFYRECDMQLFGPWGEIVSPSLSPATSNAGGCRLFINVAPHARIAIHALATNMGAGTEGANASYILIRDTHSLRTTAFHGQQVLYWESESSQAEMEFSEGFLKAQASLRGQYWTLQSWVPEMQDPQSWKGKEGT
Protocol: (§1) The working peptide was prepared by dissolving the peptide pellets in DMSO and then diluted with assay buffer, 5 mM Bis-Tris, 25 mM CaCl2, 0.005% Tween 20 at pH 6.0 to a final concentration of 4.5 μM. Pooled Normal Plasma (PNP) was used as a source of ADAMTS13. Heat inactivated PNP, heated overnight at 56° C., and known ADAMTS13-deficient patient plasma were used as negative controls. All samples were diluted 1 in 8 with assay buffer to reduce the ionic strength. Reactions were carried out in 96 well plates using 100 μL of dilute plasma and 100 μL of working peptide solution. The rate of fluorescence increase with time was monitored by a fluorometer.
(§2) FIG. 2 depicts fluorescence of the recombinant peptide during incubation. […] Each experiment was performed in triplicate and mean values are shown. Thus, it is apparent that the fluorescence increase resulting from the separation of fluors by ADAMTS13 cleavage of a labeled peptide substrate is measurable and can be used for FRET based enzyme assays.
(§3) FIG. 3 depicts the rates of change of fluorescence produced by dilutions of PNP in heat inactivated PNP. Undiluted PNP represents 100% ADAMTS13 enzyme activity for purposes of determining quantitative enzyme activity. Each point represents the mean±SEM of triplicate determination. Thus, it is apparent that recombinant fluorescein labeled peptides can be used as effective substrates in quantitative FRET based assays of ADAMTS13. Further techniques for quantitative analysis of enzyme activity are well known to skilled artisans.

ADAMTS13 [2] = assay: as above; assay type: biochemical
Protocol: as §1, §2, §3

B1: recombinant peptide: Recombinant His-tagged 73 amino acid VWF A2 peptide (SEQ ID NO: 1); Q1599 and P1611 mutated to cysteines, both labeled with fluorescein (conjugate)
chain: DRECAPNLVYMVTGNCASDEIKRLPGDIQVVPIGVGPNANVQELERIGWPNAPILIQDFETLPREAPDLVLQR
modifications: fluorescein labels on cysteines; His-tag; This is a 73 amino acid fragment of native von Willebrand factor, substituted with cysteines at positions 4 and 16.
notes: Q1599 and P1611 mutated to cysteines, both labeled with fluorescein
ADAMTS13 [1]
  fluorescence of the recombinant peptide during incubation: steady increase of fluorescence over time
ADAMTS13 [2]; incubation with heat inactivated PNP (negative control)
  fluorescence of the recombinant peptide during incubation: only minimal change in fluorescence
ADAMTS13 [2]; incubation with plasma samples from TTP patients with no ADAMTS13 activity (negative control)
  fluorescence of the recombinant peptide during incubation: only minimal change in fluorescence
